According to publication PMC10033409, “Autoregulation of GPCR signalling through the third intracellular loop” (Nature, 2023):

Target: T1, β2 adrenergic receptor (β2AR), wild type, receptor part of the β2AR–G peptide SPASM FRET sensor (human, UniProt P07550)
T1 construct: β2 adrenergic receptor (β2AR), human; One polypeptide: Receptor-4×GSG-mCitrine-4×GSG-10 nm ER/K linker-4×GSG-mCerulean-4×GSG-G peptide; the receptor and the G peptide (m5 or m6) are tethered on the same chain; also called WT; wild-type β2AR–Gs peptide sensor; source: HEK 293T Flp-In T-Rex cells, transfected, crude membrane extracts; not shown: mCitrine, C-terminal, kept
Assay: FRET or BRET; ∆FRET assay of β2AR SPASM sensors in membrane extracts; purified Nb6B9 added to quench the agonist-induced change in FRET
Details: one partner purified

B1: Nanobody Nb6B9 (Nb6B9-2×GSG-SNAP tag-Flag-2×GSG-6×His) (VHH)
VHH: QVQLQESGGGLVQAGGSLRLSCAASGSIFALNIMGWYRQAPGKQRELVAAIHSGGTTNYANSVKGRFTISRDNAANTVYLQMNSLKPEDTAVYYCNVKDFGAIIYDYDYWGQGTQVTVSS
notes: Cloned into a pBiex1 backbone; source: E. coli JM109, purified (Ni-NTA, Superdex 200 gel filtration)
- binding result: binds
